The text below walks through data of paper doi:10.1101/2020.10.05.326918 (bioRxiv, 2020).

Holding throughout (assay): cryo-EM structure
In one assay the target is MED1 (Mus musculus (endogenous in CH12 cells), UniProt Q925J9 1-1575).
The target of the next assay is T1, MED17 (Mus musculus (endogenous in CH12 cells), UniProt Q8VCD5 1-649).
T1 sequence (looked up): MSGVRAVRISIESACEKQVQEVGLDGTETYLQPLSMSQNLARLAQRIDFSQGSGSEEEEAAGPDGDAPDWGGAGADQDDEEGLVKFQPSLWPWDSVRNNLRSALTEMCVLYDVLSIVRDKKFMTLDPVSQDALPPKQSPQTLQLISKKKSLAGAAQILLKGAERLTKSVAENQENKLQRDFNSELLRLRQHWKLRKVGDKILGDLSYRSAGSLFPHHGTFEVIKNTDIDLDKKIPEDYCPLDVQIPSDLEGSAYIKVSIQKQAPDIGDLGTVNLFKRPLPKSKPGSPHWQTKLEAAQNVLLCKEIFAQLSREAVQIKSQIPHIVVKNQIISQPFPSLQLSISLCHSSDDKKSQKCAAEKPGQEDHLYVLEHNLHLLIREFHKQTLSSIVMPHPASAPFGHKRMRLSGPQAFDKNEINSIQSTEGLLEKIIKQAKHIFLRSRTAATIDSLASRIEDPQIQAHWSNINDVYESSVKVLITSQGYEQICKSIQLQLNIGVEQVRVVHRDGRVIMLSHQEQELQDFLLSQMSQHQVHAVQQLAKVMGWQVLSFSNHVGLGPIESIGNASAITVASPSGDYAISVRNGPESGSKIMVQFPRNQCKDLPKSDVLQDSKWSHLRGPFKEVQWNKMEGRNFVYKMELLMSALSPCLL

The next assay deals with T2, MED27 (Mus musculus (endogenous in CH12 cells), UniProt Q9DB40 1-311).
T2 sequence (looked up): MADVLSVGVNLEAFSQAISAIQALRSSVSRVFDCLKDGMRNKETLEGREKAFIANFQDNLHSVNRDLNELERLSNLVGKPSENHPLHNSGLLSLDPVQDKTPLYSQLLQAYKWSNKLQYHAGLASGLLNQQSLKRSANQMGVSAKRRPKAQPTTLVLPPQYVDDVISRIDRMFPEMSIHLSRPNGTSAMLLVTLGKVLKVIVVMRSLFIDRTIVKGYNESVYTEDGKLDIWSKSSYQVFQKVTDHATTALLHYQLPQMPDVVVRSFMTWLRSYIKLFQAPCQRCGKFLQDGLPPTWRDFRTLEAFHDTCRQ

Chain of MED1 (Q925J9 whole entry): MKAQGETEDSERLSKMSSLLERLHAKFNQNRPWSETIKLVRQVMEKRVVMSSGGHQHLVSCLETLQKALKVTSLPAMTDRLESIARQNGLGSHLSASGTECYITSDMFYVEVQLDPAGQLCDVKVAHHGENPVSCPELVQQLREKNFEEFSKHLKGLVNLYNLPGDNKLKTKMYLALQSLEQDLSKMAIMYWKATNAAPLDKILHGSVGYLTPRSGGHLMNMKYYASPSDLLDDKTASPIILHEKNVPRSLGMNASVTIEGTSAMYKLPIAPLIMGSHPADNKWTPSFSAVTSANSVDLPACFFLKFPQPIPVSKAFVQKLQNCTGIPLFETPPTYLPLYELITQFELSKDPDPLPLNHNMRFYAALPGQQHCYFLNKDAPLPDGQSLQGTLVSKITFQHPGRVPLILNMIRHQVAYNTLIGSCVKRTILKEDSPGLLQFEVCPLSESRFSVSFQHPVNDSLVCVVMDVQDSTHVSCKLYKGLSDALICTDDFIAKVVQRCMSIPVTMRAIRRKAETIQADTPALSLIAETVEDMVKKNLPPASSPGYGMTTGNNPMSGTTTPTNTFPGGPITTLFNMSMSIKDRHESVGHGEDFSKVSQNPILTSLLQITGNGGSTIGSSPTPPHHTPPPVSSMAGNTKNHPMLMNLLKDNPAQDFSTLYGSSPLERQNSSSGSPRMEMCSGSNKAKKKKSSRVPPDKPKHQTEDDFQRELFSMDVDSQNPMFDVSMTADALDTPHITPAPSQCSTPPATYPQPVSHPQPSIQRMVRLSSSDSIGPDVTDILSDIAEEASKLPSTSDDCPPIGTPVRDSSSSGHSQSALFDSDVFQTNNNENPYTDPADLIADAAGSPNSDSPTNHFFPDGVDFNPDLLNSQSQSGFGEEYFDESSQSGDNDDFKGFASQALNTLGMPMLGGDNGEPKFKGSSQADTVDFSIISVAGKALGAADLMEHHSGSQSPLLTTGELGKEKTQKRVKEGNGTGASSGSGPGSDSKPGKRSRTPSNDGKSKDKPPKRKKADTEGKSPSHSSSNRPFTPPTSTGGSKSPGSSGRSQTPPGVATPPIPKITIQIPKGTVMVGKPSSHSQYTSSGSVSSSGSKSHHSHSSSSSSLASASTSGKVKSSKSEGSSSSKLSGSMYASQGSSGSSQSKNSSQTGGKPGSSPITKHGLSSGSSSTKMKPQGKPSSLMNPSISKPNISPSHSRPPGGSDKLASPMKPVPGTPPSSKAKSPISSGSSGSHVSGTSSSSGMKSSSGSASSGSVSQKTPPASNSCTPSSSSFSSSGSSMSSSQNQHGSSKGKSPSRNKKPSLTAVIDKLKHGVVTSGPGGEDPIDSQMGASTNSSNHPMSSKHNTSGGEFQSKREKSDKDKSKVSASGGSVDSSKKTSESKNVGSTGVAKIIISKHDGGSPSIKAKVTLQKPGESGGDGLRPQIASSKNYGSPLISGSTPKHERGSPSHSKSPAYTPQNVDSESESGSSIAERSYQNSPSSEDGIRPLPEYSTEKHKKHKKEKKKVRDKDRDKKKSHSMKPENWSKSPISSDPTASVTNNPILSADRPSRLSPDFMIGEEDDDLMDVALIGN

B1: MED4 (natural protein, Mus musculus (endogenous in CH12 cells), UniProt Q9CQA5 1-270, looked up)
chain: MAASSSGEKEKERMGGVSGMAGLGSTRERLLSALEDLEVLSRELIEMLAISRNQKLLQLEEENQVLELLIHRDGDFQELMKLALNQGKVHHEMQALEKEVEKRDSDIQQLQKQLKEAEQILATAVYQAKEKLKSIEKARKGAISSEEIIKYAHRISASNAVCAPLTWVPGDPRRPYPTDLEMRSGLLGQMNNPSTSGVNGHLPGDALAAGRLPDVLAPQYPWQSNDMSVNMLPPNHSSDFLLEPPGHNKENEDDVEVMSTDSSSSSSDSD
For the molecule B1, the binding result with MED1 is “binds”.

B2: MED20 (natural protein, Mus musculus (endogenous in CH12 cells), UniProt Q9R0X0 1-212, looked up)
chain: MGVTCVSQMPVAEGKSLQQTVELLTKKLEMLGAEKQGTFCVDCETYHTAASTLGSQGQAGKLMYVMHNSEYPLSCFALFENGPCLIADTNFDVLMVKLKGFFQSAKASKIETRGTRYQYCDFLVKVGTVTMGPSARGISVEVEYGPCVVASDCWSLLLEFLQSFLGSHAPGAPTVFGNRHDAVYGPADTMIQYMELFNKIRKQQQVPVAGIR
For the molecule B2, the binding result in the assay with MED17 and with MED27 was “binds” throughout.

B3: MED24 (natural protein, Mus musculus (endogenous in CH12 cells), UniProt Q99K74 1-987, looked up)
chain: MKVVNLKQAILQAWKERWSDYQWAINMKKFFPKGATWDILNLAEALLEQAMIGPSPNPLILSYLKYAISSQMVSCSSVLTAISKFDDFSRDLCVQALLDIMDMFCDRLSCHGKAEECIGLCRALLSALHWLLRCTAASAERLQEGLEAGTPAPGEKQLALCLQCLEKTLSSTKNRALLHIAKLEEASSWTAIEHSLLKLGEILANLSNPQLRSQAERCGTLIRSIPSMLSVHSEQLHKTGFPTIHALILLEGTMNLTGEMQPLVEQLMMVKRMQHIPTPLFVLEIWKACFVGLIESPEGTQELKWTAFTYLKIPQVLVKLKKYFHGEKDFTEDVNCAFEFLLKLTPLLDKADQRCNCDCTNFLLQECNKQGLLSEVNFASLVGKRTADRDPQLKSSENANIQPNPGLILRAEPTVTNILKTMDADHSKSPEGLLGVLGHMLSGKSLDLLLAAAAATGKLKSFARKFINLNEFTTHGSGESTKTASVRALLFDISFLMLCHVAQTYGSEVILSESSSGEEVPFFETWMQTCMPEEGKILNPDHPCFRPDSTKVESLVALLNNSSEMKLVQMKWHEACLSISAAILEILNAWENGVLAFESIQKITDNIKGKVCSLAVCAVAWLVAHVRMLGLDEREKSLQMIRQLAGPLYSENTLQFYNERVVIMNSILEHMCADVLQQTATQIKFPSTGVDTMPYWNLLPPKRPIKEVLTDIFAKVLEKGWVDSRSIHILDTLLHMGGVYWFCNNLIKELLKETRKEHTLRAVQLLYSIFCLDMQQVTLVLLGHILPGLLTDSSKWHSLMDPPGTALAKLAVWCALSSYSSHKGQASSRQKKRHREDIEDYVSLFPVEDMQPSKLMRLLSSSDDDANILSSPTDRSMNSSLSASQLHTVNMRDPLNRVLANLFLLISSILGSRTAGPHTQFVQWFMEECVGCLEQDSRGSILQFMPFTTVSELVKVSAMSSPKVVLAITDLSLPLGRQVAAKAIAAL
Take B3: in the assay with MED1, the binding result was “binds”.
